Assay results published in the Human Domainome abundance scans (Beltran et al. 2025).
± gives the uncertainty stated by the source.

test: abundance fitness (aPCA) (normalised: wild type 0, dead -1); higher = more abundant; growth selection in yeast, the domain comes from the species named; details: Homo sapiens

Substance | abundance fitness
Scaffold attachment factor B1 K62F, Q15424 | -0.366 ± 0.078
Scaffold attachment factor B1 T78N, Q15424 | -0.182 ± 0.11
Scaffold attachment factor B1 D67G, Q15424 | -0.131 ± 0.046
Scaffold attachment factor B1 R29Y, Q15424 | -0.056 ± 0.076
Scaffold attachment factor B1 K62D, Q15424 | -0.403 ± 0.089
Scaffold attachment factor B1 T28A, Q15424 | -0.519 ± 0.083
Scaffold attachment factor B1 I75F, Q15424 | -0.371 ± 0.095
Scaffold attachment factor B1 L31K, Q15424 | -0.66 ± 0.093
Scaffold attachment factor B1 G52F, Q15424 | -1.25 ± 0.11
Scaffold attachment factor B1 G70Y, Q15424 | -0.483 ± 0.1
Scaffold attachment factor B1 R29N, Q15424 | -0.408 ± 0.1
Scaffold attachment factor B1 T26D, Q15424 | -0.915 ± 0.36
Scaffold attachment factor B1 R46C, Q15424 | -0.445 ± 0.1
Scaffold attachment factor B1 R40F, Q15424 | -0.822 ± 0.08
Scaffold attachment factor B1 A41S, Q15424 | -0.128 ± 0.053
Scaffold attachment factor B1 L61H, Q15424 | -0.611 ± 0.085
Scaffold attachment factor B1 D38H, Q15424 | -0.428 ± 0.089
Scaffold attachment factor B1 R44S, Q15424 | -0.096 ± 0.065
Scaffold attachment factor B1 N71V, Q15424 | -0.211 ± 0.055
Scaffold attachment factor B1 A64C, Q15424 | -0.016 ± 0.077
Scaffold attachment factor B1 M58A, Q15424 | -0.224 ± 0.063
Scaffold attachment factor B1 S50L, Q15424 | -0.234 ± 0.058

Substance | abundance fitness
Scaffold attachment factor B1 R35F, Q15424 | -0.59 ± 0.082
Scaffold attachment factor B1 D33S, Q15424 | -0.15 ± 0.054
Scaffold attachment factor B1 S32H, Q15424 | -0.493 ± 0.1
Scaffold attachment factor B1 D67R, Q15424 | -0.168 ± 0.049
Scaffold attachment factor B1 I75Q, Q15424 | -0.311 ± 0.071
Scaffold attachment factor B1 R44I, Q15424 | -0.13 ± 0.071
Scaffold attachment factor B1 D73Q, Q15424 | -0.362 ± 0.11
Scaffold attachment factor B1 L31F, Q15424 | -0.417 ± 0.098
Scaffold attachment factor B1 E76W, Q15424 | -0.305 ± 0.07
Scaffold attachment factor B1 S32L, Q15424 | -0.294 ± 0.071
Scaffold attachment factor B1 I65H, Q15424 | -0.917 ± 0.14
Scaffold attachment factor B1 N47P, Q15424 | -1.01 ± 0.11
Scaffold attachment factor B1 M58L, Q15424 | -0.106 ± 0.058
Scaffold attachment factor B1 R35Q, Q15424 | -0.136 ± 0.077
Scaffold attachment factor B1 R35I, Q15424 | -0.556 ± 0.08
Scaffold attachment factor B1 S32D, Q15424 | -0.236 ± 0.088
Scaffold attachment factor B1 I37S, Q15424 | -0.17 ± 0.054
Scaffold attachment factor B1 D67E, Q15424 | -0.152 ± 0.089
Scaffold attachment factor B1 K63L, Q15424 | -0.237 ± 0.044
Scaffold attachment factor B1 L39M, Q15424 | -0.304 ± 0.076
Scaffold attachment factor B1 E68P, Q15424 | -0.802 ± 0.051
Scaffold attachment factor B1 V36P, Q15424 | -0.281 ± 0.087

Substance | abundance fitness
Scaffold attachment factor B1 N47K, Q15424 | -0.349 ± 0.1
Scaffold attachment factor B1 R46A, Q15424 | -0.745 ± 0.069
Scaffold attachment factor B1 V48T, Q15424 | -0.254 ± 0.083
Scaffold attachment factor B1 L43N, Q15424 | -0.936 ± 0.13
Scaffold attachment factor B1 K54P, Q15424 | -0.25 ± 0.082
Scaffold attachment factor B1 R46P, Q15424 | -0.937 ± 0.12
Scaffold attachment factor B1 T26A, Q15424 | -0.282 ± 0.12
Scaffold attachment factor B1 N47V, Q15424 | -0.448 ± 0.056
Scaffold attachment factor B1 P72M, Q15424 | -0.362 ± 0.08
Scaffold attachment factor B1 I75L, Q15424 | -0.099 ± 0.054
Scaffold attachment factor B1 I37R, Q15424 | -0.04 ± 0.054
Scaffold attachment factor B1 R29E, Q15424 | -0.143 ± 0.068
Scaffold attachment factor B1 M58G, Q15424 | -0.368 ± 0.056
Scaffold attachment factor B1 E42S, Q15424 | -0.605 ± 0.056
Scaffold attachment factor B1 K63R, Q15424 | -0.144 ± 0.055
Scaffold attachment factor B1 L31P, Q15424 | -0.748 ± 0.071
Scaffold attachment factor B1 E68H, Q15424 | -0.359 ± 0.057
Scaffold attachment factor B1 V56Y, Q15424 | -0.345 ± 0.07
Scaffold attachment factor B1 E66I, Q15424 | -0.261 ± 0.058
Scaffold attachment factor B1 R60F, Q15424 | -0.801 ± 0.053
Scaffold attachment factor B1 T28F, Q15424 | -0.142 ± 0.084
Scaffold attachment factor B1 G70Q, Q15424 | -0.205 ± 0.068

Substance | abundance fitness
Scaffold attachment factor B1 R40C, Q15424 | -0.642 ± 0.085
Scaffold attachment factor B1 N53C, Q15424 | -0.138 ± 0.083
Scaffold attachment factor B1 P72Y, Q15424 | -0.176 ± 0.06
Scaffold attachment factor B1 L31I, Q15424 | -0.17 ± 0.06
Scaffold attachment factor B1 G70E, Q15424 | -0.244 ± 0.072
Scaffold attachment factor B1 E68K, Q15424 | -0.352 ± 0.07
Scaffold attachment factor B1 E42T, Q15424 | -0.776 ± 0.076
Scaffold attachment factor B1 R46I, Q15424 | -0.642 ± 0.072
Scaffold attachment factor B1 E76A, Q15424 | -0.161 ± 0.064
Scaffold attachment factor B1 S55H, Q15424 | -0.291 ± 0.091
Scaffold attachment factor B1 L57Q, Q15424 | -0.527 ± 0.074
Scaffold attachment factor B1 T78P, Q15424 | -0.21 ± 0.071
Scaffold attachment factor B1 I77V, Q15424 | -0.163 ± 0.066
Scaffold attachment factor B1 V36M, Q15424 | -0.031 ± 0.065
Scaffold attachment factor B1 I75H, Q15424 | -0.543 ± 0.13
Scaffold attachment factor B1 E76G, Q15424 | -0.096 ± 0.053
Scaffold attachment factor B1 S51L, Q15424 | -0.197 ± 0.061
Scaffold attachment factor B1 V36R, Q15424 | -0.258 ± 0.052
Scaffold attachment factor B1 R60N, Q15424 | -0.326 ± 0.11
Scaffold attachment factor B1 N53R, Q15424 | -0.067 ± 0.049
Scaffold attachment factor B1 L31D, Q15424 | -0.498 ± 0.075
Scaffold attachment factor B1 E68A, Q15424 | -0.233 ± 0.05

Substance | abundance fitness
Scaffold attachment factor B1 A64D, Q15424 | -0.601 ± 0.11
Scaffold attachment factor B1 V48Q, Q15424 | -0.388 ± 0.096
Scaffold attachment factor B1 S51K, Q15424 | -0.327 ± 0.093
Scaffold attachment factor B1 V48S, Q15424 | -0.255 ± 0.059
Scaffold attachment factor B1 D38F, Q15424 | -0.874 ± 0.084
Scaffold attachment factor B1 L31T, Q15424 | -0.53 ± 0.1
Scaffold attachment factor B1 P72S, Q15424 | -0.197 ± 0.058
Scaffold attachment factor B1 N53A, Q15424 | -0.175 ± 0.056
Scaffold attachment factor B1 K62R, Q15424 | -0.089 ± 0.048
Scaffold attachment factor B1 L43S, Q15424 | -0.653 ± 0.059
Scaffold attachment factor B1 G70K, Q15424 | -0.207 ± 0.081
Scaffold attachment factor B1 R35L, Q15424 | -0.316 ± 0.063
Scaffold attachment factor B1 E76N, Q15424 | -0.169 ± 0.067
Scaffold attachment factor B1 D73C, Q15424 | -0.206 ± 0.059
Scaffold attachment factor B1 E68G, Q15424 | -0.289 ± 0.045
Scaffold attachment factor B1 G27A, Q15424 | -0.257 ± 0.061
Scaffold attachment factor B1 E74I, Q15424 | -0.215 ± 0.086
Scaffold attachment factor B1 D33K, Q15424 | -0.451 ± 0.069
Scaffold attachment factor B1 L43Y, Q15424 | -1.22 ± 0.07
Scaffold attachment factor B1 D67M, Q15424 | -0.167 ± 0.1
Scaffold attachment factor B1 R40K, Q15424 | -0.416 ± 0.079
Scaffold attachment factor B1 E42L, Q15424 | -0.188 ± 0.061
